A word on the stoichiometry N: it is a count of units in the complex or per binding partner.

The values that follow come from paper PMC10556141.

The target of this test is T1, S. cerevisiae Rad51 (S. cerevisiae), P25454.
T1 chain: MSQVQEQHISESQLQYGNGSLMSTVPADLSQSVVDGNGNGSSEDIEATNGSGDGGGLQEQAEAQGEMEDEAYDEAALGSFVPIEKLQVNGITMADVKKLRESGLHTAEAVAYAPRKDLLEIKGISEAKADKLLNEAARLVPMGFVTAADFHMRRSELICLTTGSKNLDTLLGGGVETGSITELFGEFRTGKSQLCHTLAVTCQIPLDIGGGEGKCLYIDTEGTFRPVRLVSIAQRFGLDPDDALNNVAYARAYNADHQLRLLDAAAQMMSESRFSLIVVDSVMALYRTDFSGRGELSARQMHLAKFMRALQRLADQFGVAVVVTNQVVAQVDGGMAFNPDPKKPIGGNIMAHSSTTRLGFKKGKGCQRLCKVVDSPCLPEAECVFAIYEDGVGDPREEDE
As to the kind of experiment: mass photometry; TwoMP instrument; protein diluted to about 8-10 nM decamers in the well; 50 mM Tris-acetate pH 7.5, 50 mM KCl, 5 mM MgCl2. Particulars: remark: other sources report otherwise.

B1: S. cerevisiae Rad51, P25454 1-400 (natural protein)
chain: MSQVQEQHISESQLQYGNGSLMSTVPADLSQSVVDGNGNGSSEDIEATNGSGDGGGLQEQAEAQGEMEDEAYDEAALGSFVPIEKLQVNGITMADVKKLRESGLHTAEAVAYAPRKDLLEIKGISEAKADKLLNEAARLVPMGFVTAADFHMRRSELICLTTGSKNLDTLLGGGVETGSITELFGEFRTGKSQLCHTLAVTCQIPLDIGGGEGKCLYIDTEGTFRPVRLVSIAQRFGLDPDDALNNVAYARAYNADHQLRLLDAAAQMMSESRFSLIVVDSVMALYRTDFSGRGELSARQMHLAKFMRALQRLADQFGVAVVVTNQVVAQVDGGMAFNPDPKKPIGGNIMAHSSTTRLGFKKGKGCQRLCKVVDSPCLPEAECVFAIYEDGVGDPREEDE
In the case of B1, the stoichiometry N was 15.
